From patent publication US20050244448A1

Target: total elastase activity of relaxin-stimulated cultured SUI vaginal fibroblasts
Test: cell-based or functional assay

inhibition of total elastase activity: 98%
Substance: alpha-1 antitrypsin (from UniProt P01009 25-418)
